Laboratory results reported in patent US20250258178A1 (SHIONOGI, published 2025).
One block for each binder: values may come before it.

Assays:
Experiment in all cases: peptide microarray, fluorescent anti-mouse IgG
Peptide #2 = molecular target: T1, Peptide #2 (human)
T1 construct: 15-mer of human HRG printed on a PEPperCHIP peptide microarray
T1 peptide: DHSHGPPLPQGPPPL
Procedure: (§1) An overlapping peptide scanning method was performed to find out specific antibody-binding peptide epitopes. The amino acid sequence of the HRG protein was obtained in NCBI protein database. PEPperPrint (registered trademark) (Heidelberg, Germany) was commissioned to prepare PEPperCHIP peptide microarrays designed from HRG protein sequences. Each peptide consisted of an overlapping peptide library having 15 amino acid residues overlapping 14 amino acid residues and was extended at the N- and C-terminus with a neutral GSGSGSG linker to ensure that the peptides were separated from each other. […] After treatment of 21 types of anti-HRG monoclonal antibodies, it stained with an anti-mouse IgG polyclonal secondary antibody followed by reading fluorescence intensity on a scanner to quantify protein-antibody binding.
(§2) Each microarray was processed as follows. Before incubation with a sample, a standard buffer was applied on slides followed by treating with a blocking buffer. The microarray was treated with a fluorescently-labeled anti-mouse IgG secondary antibody followed by the measurement of background fluorescence intensity caused by non-specific interactions using a scanner.
(§3) The microarray was incubated with the 21 types of anti-HRG monoclonal antibodies. The microarray was stained with a fluorescently labeled anti-mouse IgG secondary antibody. The fluorescence intensity at each position was measured by a scanner.

Peptide #3 = molecular target: T2, Peptide #3 (human)
T2 construct: 15-mer of human HRG printed on a PEPperCHIP peptide microarray
T2 peptide: HSHGPPLPQGPPPLL
Procedure: as §1, §2, §3

Peptide #4 = molecular target: T3, Peptide #4 (human)
T3 construct: 15-mer of human HRG printed on a PEPperCHIP peptide microarray
T3 peptide: SHGPPLPQGPPPLLP
Procedure: as §1, §2, §3

Peptide #5 = molecular target: T4, Peptide #5 (human)
T4 construct: 15-mer of human HRG printed on a PEPperCHIP peptide microarray
T4 peptide: HGPPLPQGPPPLLPM
Procedure: as §1, §2, §3

Peptide #6 = molecular target: T5, Peptide #6 (human)
T5 construct: 15-mer of human HRG printed on a PEPperCHIP peptide microarray
T5 peptide: GPPLPQGPPPLLPMS
Procedure: as §1, §2, §3

Peptide #7 = molecular target: T6, Peptide #7 (human)
T6 construct: 15-mer of human HRG printed on a PEPperCHIP peptide microarray
T6 peptide: PPLPQGPPPLLPMSC
Procedure: as §1, §2, §3

Peptide #8 = molecular target: T7, Peptide #8 (human)
T7 construct: 15-mer of human HRG printed on a PEPperCHIP peptide microarray
T7 peptide: PLPQGPPPLLPMSCS
Procedure: as §1, §2, §3

Peptide #11 = molecular target: T8, Peptide #11 (human)
T8 construct: 15-mer of human HRG on the peptide microarray; the printed position spans only 14 residues
T8 peptide: HPHGHHPHGHHPHGH
Procedure: as §1, §2, §3

Peptide #12 = molecular target: T9, Peptide #12 (human)
T9 construct: 15-mer of human HRG on the peptide microarray; the printed position spans only 14 residues
T9 peptide: PHGHHPHGHHPHGHH
Procedure: as §1, §2, §3

Peptide #13 = molecular target: T10, Peptide #13 (human)
T10 construct: 15-mer of human HRG on the peptide microarray; the printed position spans only 14 residues
T10 peptide: HGHHPHGHHPHGHHP
Procedure: as §1, §2, §3

Peptide #14 = molecular target: T11, Peptide #14 (human)
T11 construct: 15-mer of human HRG on the peptide microarray; the printed position spans only 14 residues
T11 peptide: GHHPHGHHPHGHHPH
Procedure: as §1, §2, §3

Peptide #15 = molecular target: T12, Peptide #15 (human)
T12 construct: 15-mer of human HRG on the peptide microarray; the printed position spans only 14 residues
T12 peptide: HHPHGHHPHGHHPHC
Procedure: as §1, §2, §3

Peptide #16 = molecular target: T13, Peptide #16 (human)
T13 construct: 15-mer of human HRG on the peptide microarray; the printed position spans only 14 residues
T13 peptide: HPHGHHPHGHHPHCH
Procedure: as §1, §2, §3

Peptide #17 = molecular target: T14, Peptide #17 (human)
T14 construct: 15-mer of human HRG printed on a PEPperCHIP peptide microarray
T14 peptide: PHGHHPHGHHPHCHD
Procedure: as §1, §2, §3

Peptide #18 = molecular target: T15, Peptide #18 (human)
T15 construct: 15-mer of human HRG printed on a PEPperCHIP peptide microarray
T15 peptide: HGHHPHGHHPHCHDF
Procedure: as §1, §2, §3

Peptide #19 = molecular target: T16, Peptide #19 (human)
T16 construct: 15-mer of human HRG printed on a PEPperCHIP peptide microarray
T16 peptide: GHHPHGHHPHCHDFQ
Procedure: as §1, §2, §3

Peptide #20 = molecular target: T17, Peptide #20 (human)
T17 construct: 15-mer of human HRG printed on a PEPperCHIP peptide microarray
T17 peptide: HHPHGHHPHCHDFQD
Procedure: as §1, §2, §3

Peptide #21 = molecular target: T18, Peptide #21 (human)
T18 construct: 15-mer of human HRG printed on a PEPperCHIP peptide microarray
T18 peptide: HPHGHHPHCHDFQDY
Procedure: as §1, §2, §3

Peptide #22 = molecular target: T19, Peptide #22 (human)
T19 construct: 15-mer of human HRG printed on a PEPperCHIP peptide microarray
T19 peptide: PHGHHPHCHDFQDYG
Procedure: as §1, §2, §3

Peptide #23 = molecular target: T20, Peptide #23 (human)
T20 construct: 15-mer of human HRG printed on a PEPperCHIP peptide microarray
T20 peptide: HGHHPHCHDFQDYGP
Procedure: as §1, §2, §3

Peptide #24 = molecular target: T21, Peptide #24 (human)
T21 construct: 15-mer of human HRG printed on a PEPperCHIP peptide microarray
T21 peptide: GHHPHCHDFQDYGPC
Procedure: as §1, §2, §3

Peptide #25 = molecular target: T22, Peptide #25 (human)
T22 construct: 15-mer of human HRG printed on a PEPperCHIP peptide microarray
T22 peptide: HHPHCHDFQDYGPCD
Procedure: as §1, §2, §3

Peptide #26 = molecular target: T23, Peptide #26 (human)
T23 construct: 15-mer of human HRG printed on a PEPperCHIP peptide microarray
T23 peptide: HPHCHDFQDYGPCDP
Procedure: as §1, §2, §3

binding result (Peptide #2): binds | binding result (Peptide #3): binds | binding result (Peptide #4): binds | binding result (Peptide #5): binds | binding result (Peptide #6): binds | binding result (Peptide #7): binds | binding result (Peptide #8): binds
B1: anti-HRG monoclonal antibody 69-1A (antibody, V domains shown)
VH: EVKLEESGGGLVQPGGSMKLSCAASGFTFSDAWMDWVRQSPEKGLEWVAEIRSKANNHGTYYAESVKGRFTISRDDSKSSVYLRMNSLSAEDTGIYYCTRPFAYWGQGTLVTVSA
VL: DVVVTQTPLSLPVSLGDQASISCRSSQSLVHIDGNTYFHWYVQKPGQSPKLLIYKVSNRFSGVPDRFSGSGSGTDFTLKISRVEAEDLGVYFCSQSTHVPLTFGAGTKLELK
notes: Mouse hybridoma monoclonal; also called clone No. 69-1A

binding result (Peptide #11): binds | binding result (Peptide #12): binds | binding result (Peptide #13): binds | binding result (Peptide #14): binds | binding result (Peptide #15): binds | binding result (Peptide #16): binds | binding result (Peptide #17): binds | binding result (Peptide #18): binds | binding result (Peptide #19): binds | binding result (Peptide #20): binds | binding result (Peptide #21): binds | binding result (Peptide #22): binds | binding result (Peptide #23): binds | binding result (Peptide #24): binds | binding result (Peptide #25): binds | binding result (Peptide #26): binds
B2: anti-HRG monoclonal antibody 75-2D (antibody, V domains shown)
VH: QVQLQQSGAELMKPGASVKISCKATGYTFSSYWIEWVKQRPGHGLEWIGEILPGSGRTNYNEKFKGKATFTADTSSNTAYMQLSSLTSEDSAVYYCARYSYFYYFDYWGQGTTLTVSS
VL: DNVLTQSPAIMSASLGERVTMTCTASSSVSSSYLHWYQQKPGSSPKLWIYSTSNLASGVPARFSGSGSGTSYSLTISSMEAEDAATYYCHQYHRSPWTFGGGTKLEIK
notes: Mouse hybridoma monoclonal; also called clone No. 75-2D
